{
  "source": "paper PMC10699790",
  "target": "HA-Halo-mGluR3 (rat), P31422",
  "assay": "single-molecule pulldown",
  "conditions": "remark: other sources report otherwise",
  "data": [
    {"binder": "HA-Halo-mGluR3, P31422 23-879 (receptor, here or on the partner: Halo tag labeled with CA-SS-Alexa-488; Halo tag labeled with CA-SS-Alexa-488) LGDHNFMRREIKIEGDLVLGGLFPINEKGTGTEECGRINEDRGIQRLEAMLFAIDEINKDNYLLPGVKLGVHILDTCSRDTYALEQSLEFVRASLTKVDEAEYMCPDGSYAIQENIPLLIAGVIGGSYSSVSIQVANLLRLFQIPQISYASTSAKLSDKSRYDYFARTVPPDFYQAKAMAEILRFFNWTYVSTVASEGDYGETGIEAFEQEARLRNICIATAEKVGRSNIRKSYDSVIRELLQKPNARVVVLFMRSDDSRELIAAANRVNASFTWVASDGWGAQESIVKGSEHVAYGAITLELASHPVRQFDRYFQSLNPYNNHRNPWFRDFWEQKFQCSLQNKRNHRQVCDKHLAIDSSNYEQESKIMFVVNAVYAMAHALHKMQRTLCPNTTKLCDAMKILDGKKLYKEYLLKINFTAPFNPNKGADSIVKFDTFGDGMGRYNVFNLQQTGGKYSYLKVGHWAETLSLDVDSIHWSRNSVPTSQCSDPCAPNEMKNMQPGDVCCWICIPCEPYEYLVDEFTCMDCGPGQWPTADLSGCYNLPEDYIKWEDAWAIGPVTIACLGFLCTCIVITVFIKHNNTPLVKASGRELCYILLFGVSLSYCMTFFFIAKPSPVICALRRLGLGTSFAICYSALLTKTNCIARIFDGVKNGAQRPKFISPSSQVFICLGLILVQIVMVSVWLILETPGTRRYTLPEKRETVILKCNVKDSSMLISLTYDVVLVILCTVYAFKTRKCPENFNEAKFIGFTMYTTCIIWLAFLPIFYVTSSDYRVQTTTMCISVSLSGFVVLGCLFAPKVHIVLFQPQKNVVTHRLHLNRFSVSGTATTYSQSSASTYVPTVCNGREVLDSTTSSL", "values": [
      {"measurement": "stoichiometry N", "value": 2}
    ]}
  ]
}
